Experimental data reported in US20200102349A1 (REGENTS OF THE UNIVERSITY OF MICHIGAN, published 2020).
Where no end group is shown, it is not given here. Cy5.5 = Cy5.5 fluorophore

Columns and labels:
[1] = biological target: T1, Epidermal growth factor receptor (EGFR), human, on cells (human, UniProt P00533 25-1210); experiment: apparent dissociation constant, flow cytometry on HT29 cells, 0-200 nM peptide, 4° C., R^2=0.95
T1 construct: whole, on cells; The expression level differs between cell lines (HT29 > SW480 > SW620); It is reduced in HT29 cells transfected with siEGFR
Method: We measured the apparent dissociation constant of the peptide to HT29 cells as an assessment of binding affinity. QRH*-Cy5.5 was serially diluted in PBS at concentrations of 0, 10, 25, 50, 75, 100, 125, 150 and 200 nM. HT29 cells (˜10⁵) were incubated with QRH*-Cy5.5 at 4° C. for 1 hour, washed with cold PBS, and the mean fluorescence intensities were measured on flow cytometry. The equilibrium dissociation constant kd=1/kₐ was calculated by performing a least squares fit of the data to the non-linear equation I=(I₀+Iₘₐₓkₐ[X])/([…]). I₀ and Iₘₐₓ are the initial and maximum fluorescence intensities, corresponding to no peptide and at saturation, respectively, and [X] represents the concentration of the bound peptide [Thomas et al., Clin Exp Metastasis, 26:105-119 (2009)]. Origin 6.1 data analysis software (OriginLab Corp) was used to calculate kd.

[2] = biological target: T1, Epidermal growth factor receptor …; experiment: confocal fluorescence microscopy, FITC channel, OE21 cells

Kd [1] [nM]	fold fluorescence intensity against the GGG* control peptide [2] [fold]	Binder
50	–	QRHKPREGGGSK(Cy5.5)-NH2 (also called EGFR peptide) [QRH*-Cy5.5 (QRHKPRE peptide with GGGSK linker and Cy5.5 fluorophore)]
–	> 5	SHRNRPRNTQPS (also: FITC label, site not given here, also called SHR*-FITC; FITC-labeled peptide) [FITC labeled SHRNRPRNTQPS (SHR*) peptide]
